A value given as a limit tells only on which side of the number the result lay.

Assay [1] deals with T1, human MS4A4A (human, UniProt Q96JQ5 1-239). The assay is described as follows: FACS, U937 cells overexpressing human MS4A4A, 5 ug/ml. How it is done: (§1) Purified huIgG1 chimeric anti-MS4A4A antibodies were screened for their ability to differentially bind MS4A4A on U937 cells stably overexpressing human MS4A4A, U937 cells with human MS4A4A knocked out, and parental U937 cells. Differential binding to MS4A4A expressed on these cells was assessed by FACS analysis using 5 μg/ml of purified anti-MS4A4A chimeric antibodies, as described above.

For assay [2], the target named is T1, human MS4A4A. The assay is described as follows: FACS, parental U937 cells (endogenous human MS4A4A, not overexpressed), 5 ug/ml. How it is done:
as §1
On the technique in general: A flow cytometer gives signals particle by particle.

Assay [3] addresses T1, human MS4A4A. The assay is described as follows: FACS, U937 cells, supernatant. As to the method:
(§2) Positive clones identified in Example 22 above were expanded and then rescreened for specificity against U937, K562, and/or 300.19 cells stably overexpressing human MS4A4A or cyno MS4A4A and parental U937, K562, and/or 300.19 cells. These experiments were performed using supernatants from hybridoma clones which had undergone further expansion after initial selection. Briefly, stably transfected cells were labeled with LIVE/DEAD Fixable Aqua Dead Cell Stain Kit (ThermoFisher Scientific Cat#L34957) on ice for 30 minutes. […] 2×10⁵ cells were aliquoted per well in 96-well U-bottom plates and incubated with 50 μl of culture supernatant on ice for 30 minutes. […] Following this secondary incubation, the cells were again washed twice with ice-cold FACS buffer and resuspended in a final volume of 200 μl of FACS buffer. Analysis was performed on a FACS Canto system (BD Biosciences), with gates drawn to exclude dead (Aqua-positive) cells.
(§3) The APC ratio was calculated for each antibody as follows. […] For cell lines overexpressing human MS4A4A (h4A) or cyno MS4A4A (cy4A), the ration was calculated by comparing the binding measured to the binding observed on the corresponding parental cell lines.

Assay [4] has as its target T2, human MS4A4A ECL2 peptide (amino acid residues 159-179), free (human).
T2 construct: synthetic peptide; also called huMS4A4A-ELC2 free-peptide
T2 peptide: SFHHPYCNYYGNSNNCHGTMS
The assay can be described thus: peptide ELISA, supernatant. For orientation: ELISA stands for enzyme-linked immunosorbent assay.

Assay [5] concerns the target T3, cynomolgus (cyno) MS4A4A (cynomolgus).
T3 construct: also called cy4A; Cyno 4A
The assay can be described thus: FACS, 300.19 cells, supernatant. How it is done:
as §2, §3

For assay [6], the target named is T4, human MS4A4A ECL1 peptide (amino acid residues 86-98) (human).
T4 construct: synthetic peptide
T4 peptide: CMASNTYGSNPIS
The assay can be described thus: peptide ELISA. As to the method: Briefly, 96-well polystyrene plates were coated with […] of synthetic free or BSA-conjugated peptides in coating buffer (0.05M carbonate buffer, pH9.6, Millipore Sigma Cat#C3041) overnight at 4° C. Coated plates were then blocked with ELISA diluent (PBS+0.5% BSA+0.05% Tween20) for 1-hour, washed 3×300 μL in PBST (PBS+0.05% Tween20, Thermo Cat#28352), and then the antibodies were added to the plate (50 μl/well). After 30 mins incubation (room temperature, with shaking), the plates were washed 3×300 μL in PBST. […] After a final set of washes (3×300 μL in PBST), 50 μL of TMB substrate (BioFx Cat#TMBW-1000-01) was added and the reaction was then quenched after 5-10 mins with 50 μL of stop solution (BioFx Cat#BSTP-1000-01). The quenched reaction wells were detected for absorbance at 650nm with a BioTek Synergy Microplate Reader using GENS 2.04 software.

The target of assay [7] is T1, human MS4A4A. The assay is described as follows: FACS, K562 cells, supernatant. How it is done: as §2, §3

B1: anti-MS4A4A antibody 4A-201, huIgG1 chimera (antibody, V domains shown)
VH: QVQLRESGPGLVAPSQSLSITCTVSGFSLSSFGVTWVRQPPGKGLEWLGIIWGDGSTNYHSALISRLSISKDNSKSQVFLKLNRLQTDDTATYYCAKRDYDGREDVMGYWGQGTSVTVSS
VL: DIVMTQSQKFMSTSVGDRVSITCKATQNVRTAVAWYQQKPGQSPKPLIYLASNRHTGVPDRFTGSGSGTDFTLTITNVQSEDLADYFCLQHWSYPLTFGAGTKLEMK
As for B1, the results for the “ratio of MFI over secondary antibody alone” value (“ratio of MFI” for short) in assay [1] and in assay [2] were 8.9 ratio and 1.1 ratio, respectively.

B2: anti-MS4A4A antibody 4A-213, huIgG1 chimera (antibody, V domains shown)
VH: QVQLKESGPGLVAPSQSLSITCTVSGFSLTSYGVHWVRQPPGKGLEWLGVIWVGGSTNYNSALMSRLSISKDNSKSQVFLKMNSLQTDDTAMYYCARAVYYYGSSYYFDYWGQGTTVTVSS
VL: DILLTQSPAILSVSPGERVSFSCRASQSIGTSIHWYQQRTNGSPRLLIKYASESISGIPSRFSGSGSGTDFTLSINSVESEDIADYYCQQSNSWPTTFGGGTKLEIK
Turning to B2, the entries for the “ratio of MFI” value in assay [1] and in assay [2] were 13 ratio and 1.1 ratio, respectively.

B3: anti-MS4A4A antibody 4A-217 (murine) (antibody, V domains shown)
VH: EVKLVESGGGLVKPGGSLKLSCAASGFTFSSYGMSWVRQTPEKRLEWVAHISGGGTFTHYPDSVKGRFTISRDNAKNNLYLQMSSLRSEDTALYYCAREGAGTRFAYWGQGTLVTVSS
VL: DIQMTQTTSSLSASLGDRVTISCRPSQDISNSLNWYQQKPDGTVKLLIYSTSKLHSGVPSRFSGSGSGIDYSLTISNLEQEDIATYFCQQDYTLPWTFGGGTKLDVK
notes: murine hybridoma antibody
With B3, the “fold increase in MFI” value in assay [3] and in assay [5] was above 2 fold in each case. Also, the binding result in assay [4] and in assay [6] was “no binding” each time.

B4: anti-MS4A4A antibody 4A-217, huIgG1 chimera (antibody, V domains shown)
VH: EVKLVESGGGLVKPGGSLKLSCAASGFTFSSYGMSWVRQTPEKRLEWVAHISGGGTFTHYPDSVKGRFTISRDNAKNNLYLQMSSLRSEDTALYYCAREGAGTRFAYWGQGTLVTVSS
VL: DIQMTQTTSSLSASLGDRVTISCRPSQDISNSLNWYQQKPDGTVKLLIYSTSKLHSGVPSRFSGSGSGIDYSLTISNLEQEDIATYFCQQDYTLPWTFGGGTKLDVK
As to B4, the “ratio of MFI” value in assay [1] is 23.6 ratio; in assay [2], 1.1 ratio.

B5: anti-MS4A4A antibody 4A-206, huIgG1 chimera (antibody, V domains shown)
VH: EVKLVESGGGLVKPGGSLKLSCAASGFTFSSYTMSWVRQTPEKRLEWVASLSSGGSTYYPDSVKGRFTISRDNARNILYLQMSSLRSEDTAMYYCAKDYYVSSYRWYFDVWGAGTTVTVSS
VL: DIQMTQITSSLSASLGDRVTISCRASQDISNYLNWYQQKPDGTVKLLIYYTSNLHSGVPSRFSGSGSGTDYSLTISNLEQEDIATYFCQQGKSFPWTFGGGTKLEIK
Consider B5, for which the “ratio of MFI” value in assay [1] came to 18.5 ratio; in assay [2], 1.1 ratio.

B6: anti-MS4A4A antibody 4A-205 (murine) (antibody, V domains shown)
VH: EVQLVESGGDLVKPGGSLKLSCAASGFTFSHYGMSWVRQTPDKRLDWVATIGRDGIHTDYRDSVKGRFTISRDNAKNTLYLQMGSLKSEDSAIFYCARHLYYGLYYSMDYWGQGTSVTVSS
VL: ENVLTQSPAIMSASPGEKVTMTCSASSSVSFMYWYQQKSSTSPKLWIYDTSKLASGVPGRFSGSGSGNSYSLTISSMEAEDVATYYCFQGSGYPLTFGSGTKLEIK
notes: murine hybridoma antibody
For B6, the “fold increase in MFI” value in assay [3], in assay [5] and in assay [7] was above 2 fold in each case. For the same molecule, the binding result in assay [4] and in assay [6] was “no binding” each time.

B7: anti-MS4A4A antibody 4A-205, huIgG1 chimera (antibody, V domains shown)
VH: EVQLVESGGDLVKPGGSLKLSCAASGFTFSHYGMSWVRQTPDKRLDWVATIGRDGIHTDYRDSVKGRFTISRDNAKNTLYLQMGSLKSEDSAIFYCARHLYYGLYYSMDYWGQGTSVTVSS
VL: ENVLTQSPAIMSASPGEKVTMTCSASSSVSFMYWYQQKSSTSPKLWIYDTSKLASGVPGRFSGSGSGNSYSLTISSMEAEDVATYYCFQGSGYPLTFGSGTKLEIK
Take B7: the “ratio of MFI” value in assay [1] is 25.3 ratio; in assay [2], 1 ratio.

B8: anti-MS4A4A antibody 4A-209, huIgG1 chimera (antibody, V domains shown)
VH: EVKLLESGGGLVQPGGSLKLSCAASGFDFSRYWMSWVRQAPGKGLEWIGEIKSDSSTINYTPSLKDKFIISRDNAKNTLYLQMSKVRSEDTALYYCARRGFYDYDAWFAYWGQGTLVTVSS
VL: QIVLTQSPTLMSASPGEKVTMTCSASSSVTYMYWYQQKPRSSPKPWIYLTSNRASGVPTRFSGSGSGTSHSLTISYMEAEDAATYYCQQWSSNPPTFGAGTKLELR
Consider B8, for which the “ratio of MFI” value was 19.8 ratio in assay [1] and 1.1 ratio in assay [2].

B9: anti-MS4A4A antibody 4A-207, huIgG1 chimera (antibody, V domains shown)
VH: EVNLEESGGGLVQPGGSMKLSCVASGFTFNNYWMNWVRQSPEKGLEWVAEIRLKSNNYATHYAESVKGRFTISRDDSKSSVYLQMNNLRPEDTAIYYCTTDPPMDYSGQGTPVTVSS
VL: QIVLTQSPAFMSASPGEKVTITCSASSSVSYMHWFQQKPGTSPKLWIYSTSNLVSGVPDRFSGSGSGTSYSLTISRMEAEYAATYYCHQRTSYPWTFGGGTKLEIK
As for B9, the “ratio of MFI” value in assay [1] was 10 ratio; in assay [2], 1.1 ratio.

B10: anti-MS4A4A antibody 4A-208 (murine) (antibody, V domains shown)
VH: EVHLQQSGAEVVKPGASVKLSCTASGFNIKDTYIHWVMQRPEQGLEWIGRIDPANDNTKYDPKFQGKATITSDTSSNTAYLHLSSLTSEDTAVYYCARIAYGSWALDYWGQGTSVTVSS
VL: DIVMTQSQKFMSTSVGDRVIVTCKASQNVDTNVAWYQQKPGQSPKTLIYSASFRYSGVPDRFTGSGSGTDFTLSISNVQSEDLAEYFCQQYNSYPWTFGGGTKLEIK
notes: murine hybridoma antibody
In the case of B10, the “fold increase in MFI” value in assay [3], in assay [5] and in assay [7] was above 2 fold each time. Moreover, the binding result in assay [4] and in assay [6] was “no binding” in each case.

B11: anti-MS4A4A antibody 4A-208, huIgG1 chimera (antibody, V domains shown)
VH: EVHLQQSGAEVVKPGASVKLSCTASGFNIKDTYIHWVMQRPEQGLEWIGRIDPANDNTKYDPKFQGKATITSDTSSNTAYLHLSSLTSEDTAVYYCARIAYGSWALDYWGQGTSVTVSS
VL: DIVMTQSQKFMSTSVGDRVIVTCKASQNVDTNVAWYQQKPGQSPKTLIYSASFRYSGVPDRFTGSGSGTDFTLSISNVQSEDLAEYFCQQYNSYPWTFGGGTKLEIK
Consider B11, for which the “ratio of MFI” value in assay [1] came out at 19.9 ratio; in assay [2], 1.1 ratio.

These data come from patent publication US20230126400A1 (Alector, published 2023).
